Results published in patent publication US20220332800A1 (Takeda / Millennium, published 2022).

Experiments:
Zika PRVABC59 live virus = Zika PRVABC59 live virus (Zika virus); experiment: cell-based or functional assay
[1] = target: T1, ZIKV-VLP (Native Antigen Inc.) (Zika virus); experiment: indirect ELISA, purified antibody serially diluted from 10 µg/ml
T1 construct: also called Zika VLP; ZVLP

[2] = target: T1, ZIKV-VLP (Native Antigen Inc.); experiment: BLI binning on ZIKV-VLP; 1st mAb: 242-3
[3] = target: T1, ZIKV-VLP (Native Antigen Inc.); experiment: BLI (Octet), supernatant IgG captured on Protein A biosensor, ZIKV-VLP 3.3 µg/mL in solution, 1:1 model
[4] = target: T1, ZIKV-VLP (Native Antigen Inc.); experiment: BLI binning on ZIKV-VLP; 1st mAb: 306-2
[5] = target: T1, ZIKV-VLP (Native Antigen Inc.); experiment: BLI binning on ZIKV-VLP; 1st mAb: Ab1
[6] = target: T1, ZIKV-VLP (Native Antigen Inc.); experiment: BLI binning on ZIKV-VLP; 1st mAb: C10
[7] = target: T1, ZIKV-VLP (Native Antigen Inc.); experiment: BLI binning on ZIKV-VLP; 1st mAb: 181-4
[8] = target: T1, ZIKV-VLP (Native Antigen Inc.); experiment: BLI binning on ZIKV-VLP; 1st mAb: 11-3
[9] = target: T1, ZIKV-VLP (Native Antigen Inc.); experiment: BLI binning on ZIKV-VLP; 1st mAb: 4G2
[10] = target: T1, ZIKV-VLP (Native Antigen Inc.); experiment: BLI binning on ZIKV-VLP; 1st mAb: 78-2
[11] = target: T1, ZIKV-VLP (Native Antigen Inc.); experiment: BLI binning on ZIKV-VLP; 1st mAb: 102-1
[12] = target: T1, ZIKV-VLP (Native Antigen Inc.); experiment: BLI binning on ZIKV-VLP; 1st mAb: 329-2
[13] = target: T1, ZIKV-VLP (Native Antigen Inc.); experiment: BLI binning on ZIKV-VLP; 1st mAb: 260-2
[14] = target: T1, ZIKV-VLP (Native Antigen Inc.); experiment: BLI binning on ZIKV-VLP; 1st mAb: 289-3
[15] = target: T1, ZIKV-VLP (Native Antigen Inc.); experiment: BLI binning on ZIKV-VLP; 1st mAb: Ab2
[16] = target: T1, ZIKV-VLP (Native Antigen Inc.); experiment: BLI binning on ZIKV-VLP; 1st mAb: 270-12

Binder	MNT IC50 (ng/mL) of Purified antibody (Zika PRVABC59 live virus) [ng/mL]	EC50 [1] [µg/mL]	response of 2nd mAb [2]	koff [3] [s⁻¹]	response of 2nd mAb [4]	response of 2nd mAb [5]	response of 2nd mAb [6]	response of 2nd mAb [7]	response of 2nd mAb [8]	response of 2nd mAb [9]	response of 2nd mAb [10]	response of 2nd mAb [11]	response of 2nd mAb [12]	response of 2nd mAb [13]	response of 2nd mAb [14]	response of 2nd mAb [15]	response of 2nd mAb [16]
anti-ZIKV antibody 181-4/329-2 (antibody) heavy: QAQLEESGGDLVKPEGSLTLTCTASGFSFTDRHYMCWVRQAPGKGLEWIACVYPGSSGSTYYASWARGRFTISKTSSTTVTLRMTSLTAADTATYFCARSSYPDSSGYSYGMDLWGPGTLVTVSSGQPKAPSVFPLAPCCGDTPSSTVTLGCLVKGYLPEPVTVTWNSGTLTNGVRTFPSVRQSSGLYSLSSVVSVTSSSQPVTCNVAHPATNTKVDKTVAPSTCSKPTCPPPELLGGPSVFIFPPKPKDTLMISRTPEVTCVVVDVSQDDPEVQFTWYINNEQVRTARPPLREQQFNSTIRVVSTLPIAHQDWLRGKEFKCKVHNKALPAPIEKTISKARGQPLEPKVYTMGPPREELSSRSVSLTCMINGFYPSDISVEWEKNGKAEDNYKTTPAVLDSDGSYFLYSKLSVPTSEWQRGDVFTCSVMHEALHNHYTQKSISRSPGK light: DIVMTQTPASVEAAVGGTVTIKCQASQNINSNLAWYQQKPGQRPKFLMYLTSKLASGVPSRFRGSGSGTQFTLTISDLECADAATYYCQTYYDISNYGYAFGGGTEVVVKGDPVAPTVLIFPPAADQVATGTVTIVCVANKYFPDVTVTWEVDGTTQTTGIENSKTPQNSADCTYNLSSTLTLTSTQYNSHKEYTCKVTQGTTSVVQSFNRGDC	26.7	0.0114	0.01	< 1e-07													
anti-ZIKV antibody 260-3 (antibody, also called clone 260-3) heavy: QAQLEESGGDLVKPEGSLTLTCTASGFSFTDRHYMCWVRQAPGKGLEWIACVYPGSSGSTYYASWARGRFTISKTSSTTVTLRMTSLTAADTATYFCARSSYPDSSGYSYGMDLWGPGTLVTVPSGQPKAPSVFPLAPCCGDTPSSTVTLGCLVKGYLPEPVTVTWNSGTLTNGVRTFPSVRQSSGLYSLSSVVSVTSSSQPVTCNVAHPATNTKVDKTVAPSTCSKPTCPPPELLGGPSVFIFPPKPKDTLMISRTPEVTCVVVDVSQDDPEVQFTWYINNEQVRTARPPLREQQFNSTIRVVSTLPIAHQDWLRGKEFKCKVHNKALPAPIEKTISKARGQPLEPKVYTMGPPREELSSRSVSLTCMINGFYPSDISVEWEKNGKAEDNYKTTPAVLDSDGSYFLYSKLSVPTSEWQRGDVFTCSVMHEALHNHYTQKSISRSPGK light: DIVMTQTPASVEAAVGGTVTIKCQASQNINSNLAWYQQKPGQRPKFLMYLTSKLASGVPSRFRGSGSGTQFTLTISDLECADAATYYCQTYYDISNYGYAFGGGTEVVVKGDPVAPTVLIFPPAADQVATGTVTIVCVANKYFPDVTVTWEVDGTTQTTGIENSKTPQNSADCTYNLSSTLTLTSTQYNSHKEYTCKVTQGTTSVVQSFNRGDC	19.9	0.00793	0.01	< 1e-07	0.32	0.32	4.06	0	0.36	0.67	0.33	0.03	0.01	0	-0.03	4.96	0.01
